Source: the supplement of paper PMC10567573

B1: ACSBG2 (parent)
chain: FAQADALKGTLVSTLKEVKPTVFI

Variants of: B1
Assay: protein stability index of a GFP-peptide fusion (GPS, HEK-293T) (PSI 1-6); higher = more stable
Settings: c terminus: a fixed tail appended
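Further: lentivirally expressed fusions sorted by FACS into six bins by GFP to DsRed ratio, PSI derived from sequencing read proportions per bin multiplied by bin number.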

Row | Variant | protein stability index
1 | G9I | 4.73
2 | G9V | 2.61
3 | G9A | 2.24
4 | G9Q | 2.52
5 | G9W | 3.93
6 | G9R | 2.76
7 | G9C | 2.73
8 | G9E | 1.5
9 | G9H | 1.55
10 | G9D | 1.59
11 | G9F | 2.24
12 | G9L | 2.72
13 | G9K | 2.32
14 | G9P | 2.01
15 | G9N | 1.27
16 | G9M | 2.03
17 | G9T | 1.38
18 | G9S | 2.84
19 | G9Y | 1.78
20 | A4G | 2.44
21 | A4I | 1.66
22 | A4K | 2.03
23 | A4Y | 1.52
24 | A4M | 2.05

Row | Variant | protein stability index
25 | A4F | 2.18
26 | A4R | 2.19
27 | A4S | 1.69
28 | A4Q | 1.44
29 | A4C | 2.52
30 | A4E | 2.77
31 | A4P | 3.08
32 | A4T | 1.94
33 | A4L | 1.69
34 | A4V | 1.48
35 | A4H | 2.31
36 | A4N | 2.14
37 | A4D | 2.74
38 | A2P | 1.48
39 | A2N | 1.45
40 | A2L | 2.46
41 | A2M | 1.79
42 | A2F | 2.79
43 | A2E | 2.05
44 | A2C | 1.85
45 | A2T | 1.56
46 | A2R | 1.42
47 | A2S | 1.76
48 | A2Q | 1.64

Row | Variant | protein stability index
49 | A2D | 2.11
50 | A2H | 2.08
51 | A2G | 2.13
52 | A2K | 2.49
53 | A2I | 1.22
54 | L15N | 1.77
55 | L15W | 1.66
56 | L15A | 2.51
57 | L15D | 2.19
58 | L15T | 1.97
59 | L15M | 1.6
60 | L15Y | 1.78
61 | L15Q | 2.02
62 | L15E | 2.39
63 | L15R | 2.1
64 | L15V | 1.06
65 | L15P | 2
66 | L15H | 1.93
67 | L15K | 1.8
68 | L15F | 1.77
69 | L15G | 1.4
70 | L15S | 1.96
71 | L11V | 2.08
72 | L11C | 1.72

Row | Variant | protein stability index
73 | L11H | 1.72
74 | L11F | 1.7
75 | L11M | 2.41
76 | L11E | 2.88
77 | L11A | 1.88
78 | L11D | 2.02
79 | L11Q | 2.88
80 | L11N | 2.1
81 | L11G | 1.51
82 | L11K | 1.67
83 | L11I | 2.55
84 | L11P | 1.84
85 | L11T | 2.78
86 | L11S | 1.61
87 | L11R | 2.13
88 | Q3M | 3.51
89 | Q3N | 3.49
90 | Q3Y | 1.45
91 | Q3I | 4.29
92 | Q3G | 3.16
93 | Q3L | 2.44
94 | Q3D | 1.36
95 | Q3V | 3.21
96 | Q3C | 1.4

Row | Variant | protein stability index
97 | Q3T | 1.8
98 | Q3W | 2.13
99 | Q3R | 2.92
100 | Q3E | 1.74
101 | Q3F | 3.71
102 | Q3S | 1.28
103 | Q3K | 2.06
104 | Q3A | 1.86
105 | T10W | 2.36
106 | T10R | 2.62
107 | T10V | 2.24
108 | T10H | 2.91
109 | T10P | 1.14
110 | T10D | 2.07
111 | T10E | 1.65
112 | T10Q | 1.79
113 | T10N | 1.61
114 | T10K | 1.98
115 | T10S | 1.55
116 | T10A | 2.04
117 | T10F | 2.23
118 | T10I | 2.96
119 | T10C | 1.81
120 | T10G | 1.46

Row | Variant | protein stability index
121 | T10Y | 3.48
122 | T10M | 2.76
123 | K8H | 2.74
124 | K8A | 2.12
125 | K8F | 2.34
126 | K8G | 2.31
127 | K8C | 1.85
128 | K8E | 1.41
129 | K8R | 1.8
130 | K8T | 3.3
131 | K8P | 1.4
132 | K8M | 1.22
133 | K8N | 1.59
134 | K8D | 1.9
135 | K8S | 1.71
136 | K8Y | 3
137 | K8Q | 2.39
138 | P20S | 2.9
139 | P20W | 2.33
140 | P20D | 1.51
141 | P20Q | 2.13
142 | P20V | 1.91
143 | P20K | 1.25
144 | P20Y | 2.68

Row | Variant | protein stability index
145 | P20N | 2.42
146 | P20R | 2.28
147 | P20F | 2.4
148 | P20L | 3.23
149 | P20G | 2.47
150 | K16P | 2.41
151 | K16S | 2.25
152 | K16F | 2.41
153 | K16T | 3.25
154 | K16H | 2.75
155 | K16V | 2.8
156 | K16D | 1.65
157 | K16A | 1.97
158 | K16E | 2.38
159 | K16W | 2.4
160 | K16R | 1.45
161 | K16C | 2.34
162 | K16Q | 1.56
163 | D5N | 1.9
164 | D5K | 1.69
165 | D5Q | 2.4
166 | D5A | 3.35
167 | D5Y | 1.44
168 | D5P | 1.9

Row | Variant | protein stability index
169 | D5R | 1.55
170 | D5H | 1.3
171 | D5C | 1.35
172 | D5F | 3.26
173 | D5S | 2.67
174 | D5V | 2.08
175 | D5M | 2.98
176 | D5E | 1.26
177 | D5T | 2.12
178 | D5I | 2.7
179 | L7M | 2.73
180 | L7V | 1.91
181 | L7H | 2.16
182 | L7C | 1.52
183 | L7I | 1.86
184 | L7G | 1.3
185 | L7Q | 2.11
186 | L7T | 2.02
187 | L7K | 2.37
188 | L7D | 2.12
189 | L7S | 1.67
190 | L7P | 2.05
191 | L7F | 3.08
192 | L7E | 2.5

Row | Variant | protein stability index
193 | L7N | 1.73
194 | L7A | 2.1
195 | L7R | 2.07
196 | T21A | 1.36
197 | T21E | 1.47
198 | T21D | 1.82
199 | A6D | 1.71
200 | A6W | 3.31
201 | A6G | 1.57
202 | A6C | 1.28
203 | A6Q | 1.54
204 | A6K | 2.23
205 | A6P | 1.69
206 | A6M | 1.9
207 | A6R | 1.67
208 | A6I | 1.34
209 | A6T | 2.21
210 | A6F | 2.84
211 | A6Y | 3.07
212 | A6H | 1.61
213 | A6E | 1.95
214 | A6S | 2.08
215 | A6V | 2.58
216 | A6N | 1.58

Row | Variant | protein stability index
217 | E17F | 2.07
218 | E17S | 1.81
219 | E17R | 1.99
220 | E17P | 1.83
221 | E17Q | 1.73
222 | E17M | 2.29
223 | E17N | 3.2
224 | E17C | 2.06
225 | E17V | 2.23
226 | E17I | 1.86
227 | E17D | 1.48
228 | E17L | 2.51
229 | E17G | 1.95
230 | E17A | 1.03
231 | E17H | 3.49
232 | E17T | 3.12
233 | E17K | 1.45
234 | T14M | 1.32
235 | T14D | 1.88
236 | T14N | 2.26
237 | T14V | 2.05
238 | T14E | 1.26
239 | T14K | 2.03
240 | T14I | 2.22

Row | Variant | protein stability index
241 | T14P | 1.23
242 | T14S | 1.08
243 | T14Y | 3.04
244 | T14H | 2.27
245 | T14Q | 1.95
246 | T14F | 2.64
247 | T14L | 1.51
248 | T14A | 1.8
249 | V12G | 1.95
250 | V12M | 1.66
251 | V12K | 3.87
252 | V12E | 1.89
253 | V12C | 1.76
254 | V12I | 2.26
255 | V12D | 1.81
256 | V12L | 1.25
257 | V12H | 2.12
258 | V12A | 1.64
259 | V12P | 1.85
260 | V12R | 2.08
261 | V12N | 1.6
262 | V12Q | 1.52
263 | V12S | 1.34
264 | V12T | 1.63

Row | Variant | protein stability index
265 | F1N | 2.59
266 | F1E | 3.21
267 | F1K | 2.25
268 | F1C | 1.3
269 | F1D | 2.43
270 | F1I | 2.25
271 | F1G | 2.46
272 | F1M | 2.14
273 | F1A | 2.26
274 | F1Q | 3.73
275 | F1S | 2
276 | F1T | 2.33
277 | F1R | 1.83
278 | F1L | 2
279 | F1Y | 1.96
280 | F1V | 1.54
281 | F1H | 1.98
282 | F1W | 1.46
283 | F1P | 2.31
284 | V18T | 1.26
285 | V18I | 2.48
286 | V18E | 5.23
287 | V18W | 3.71
288 | V18N | 2.43

Row | Variant | protein stability index
289 | V18K | 1.92
290 | V18D | 1.68
291 | V18L | 1.04
292 | V18S | 1.98
293 | V18C | 3.06
294 | V18P | 1.74
295 | V18M | 1.44
296 | V18R | 1.89
297 | V18A | 2.63
298 | V18H | 1.28
299 | V18Q | 2.04
300 | V18G | 1.79
301 | K19S | 2.45
302 | K19C | 2.65
303 | K19D | 2.26
304 | K19E | 1.48
305 | K19M | 3.1
306 | K19W | 1.99
307 | K19P | 2.84
308 | K19Q | 2.08
309 | K19G | 3.46
310 | K19T | 2.53
311 | K19N | 1.48
312 | K19A | 2.49

Row | Variant | protein stability index
313 | K19H | 1.04
314 | K19F | 3.16
315 | K19Y | 2.36
316 | K19R | 1.02
317 | S13N | 2.01
318 | S13F | 2.53
319 | S13P | 1.41
320 | S13Y | 3.19
321 | S13E | 1.27
322 | S13H | 1.84
323 | S13A | 2.1
324 | S13T | 2.04
325 | S13Q | 1.39
326 | S13V | 4.44
327 | S13D | 1.85
328 | S13I | 2.4
329 | S13M | 3.57
330 | S13L | 2.05
331 | S13R | 1.46
332 | S13C | 1.93
333 | S13G | 1.04
334 | S13K | 3.44
